# Source: paper PMC12099206
# Tests used:
# [1] = biological target: CmFDL1 expressed in chrysanthemum protoplasts (Chrysanthemum morifolium)
# [2] = biological target: CmFTL3 expressed in chrysanthemum protoplasts (Chrysanthemum morifolium)
substance,measurement,setting,value
CmTCP7 expressed in chrysanthemum protoplasts (natural protein),"decrease in Luc activity of CmCDM111Lpro:Luc in chrysanthemum protoplasts (dual-luciferase), CmTCP7, CmFTL3 and CmFDL1 co-transfected against CmFTL3 and CmFDL1",[1],80%
same,"decrease in Luc activity of CmCDM111Lpro:Luc in chrysanthemum protoplasts (dual-luciferase), CmTCP7, CmFTL3 and CmFDL1 co-transfected against CmFTL3 and CmFDL1",[2],80%
